Reference: article PMC11257983 (2024)
Each block holds one molecule with its values, some of them ahead of it.

Key:
[1] = biological target: CNK^SAM R46F (Flag-CNK^2–549 assumed); experiment: GST pull-down, immunoblot quantification; settings: S2 cells, Flag-CNK2–549, V5-KSR, Myc-MEK, GST-HYP co-expressed, captured via GST-HYP, parent: 1.00
[2] = biological target: endogenous CNK (anti-CNK blot, no CNK construct transfected); experiment: anti-V5 immunoprecipitation, immunoblot quantification; settings: S2 cells; V5-KSR and Myc-MEK co-expressed; anti-CNK blot (band near 180 kDa); parent: 1.00
[3] = biological target: CNK^CRIC N96E (Flag-CNK^2–549 assumed); experiment: GST pull-down, immunoblot quantification; settings: S2 cells, Flag-CNK2–549, V5-KSR, Myc-MEK, GST-HYP co-expressed, captured via GST-HYP, parent: 1.00
[4] = biological target: CNK^SAM Y76R (Flag-CNK^2–549 assumed); experiment: GST pull-down, immunoblot quantification; settings: S2 cells, Flag-CNK2–549, V5-KSR, Myc-MEK, GST-HYP co-expressed, captured via GST-HYP, parent: 1.00
[5] = biological target: CNK^CRIC Q84E (Flag-CNK^2–549 assumed); experiment: GST pull-down, immunoblot quantification; settings: S2 cells, Flag-CNK2–549, V5-KSR, Myc-MEK, GST-HYP co-expressed, captured via GST-HYP, parent: 1.00
[6] = biological target: Flag-CNK^2–549 (UniProt Q7KNQ9); experiment: GST pull-down, immunoblot quantification; settings: S2 cells, Flag-CNK2–549, V5-KSR, Myc-MEK, GST-HYP co-expressed, captured via GST-HYP, parent: 1.00
Chain of Flag-CNK^2–549 (Q7KNQ9 entry or part of it): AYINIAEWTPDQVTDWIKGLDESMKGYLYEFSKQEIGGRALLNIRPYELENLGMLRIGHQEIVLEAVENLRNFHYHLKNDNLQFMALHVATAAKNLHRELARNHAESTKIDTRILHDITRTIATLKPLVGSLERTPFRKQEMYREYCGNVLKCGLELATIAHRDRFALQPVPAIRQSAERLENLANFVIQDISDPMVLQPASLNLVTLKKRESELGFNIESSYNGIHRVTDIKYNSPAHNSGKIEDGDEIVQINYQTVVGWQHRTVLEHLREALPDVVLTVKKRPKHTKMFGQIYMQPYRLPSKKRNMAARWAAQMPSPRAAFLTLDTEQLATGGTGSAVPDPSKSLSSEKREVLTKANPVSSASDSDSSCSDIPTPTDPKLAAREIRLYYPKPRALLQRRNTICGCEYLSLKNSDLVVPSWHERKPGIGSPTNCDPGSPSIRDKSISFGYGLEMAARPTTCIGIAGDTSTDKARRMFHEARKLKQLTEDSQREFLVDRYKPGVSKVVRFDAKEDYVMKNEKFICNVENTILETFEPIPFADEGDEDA

[7] = biological target: T1, V5-KSR R913E, Q24171; experiment: anti-V5 immunoprecipitation, immunoblot quantification; settings: chain shown with the change; S2 cells; V5-KSR and Myc-MEK co-expressed; anti-Myc (MEK) blot; parent: 1.00
T1 chain: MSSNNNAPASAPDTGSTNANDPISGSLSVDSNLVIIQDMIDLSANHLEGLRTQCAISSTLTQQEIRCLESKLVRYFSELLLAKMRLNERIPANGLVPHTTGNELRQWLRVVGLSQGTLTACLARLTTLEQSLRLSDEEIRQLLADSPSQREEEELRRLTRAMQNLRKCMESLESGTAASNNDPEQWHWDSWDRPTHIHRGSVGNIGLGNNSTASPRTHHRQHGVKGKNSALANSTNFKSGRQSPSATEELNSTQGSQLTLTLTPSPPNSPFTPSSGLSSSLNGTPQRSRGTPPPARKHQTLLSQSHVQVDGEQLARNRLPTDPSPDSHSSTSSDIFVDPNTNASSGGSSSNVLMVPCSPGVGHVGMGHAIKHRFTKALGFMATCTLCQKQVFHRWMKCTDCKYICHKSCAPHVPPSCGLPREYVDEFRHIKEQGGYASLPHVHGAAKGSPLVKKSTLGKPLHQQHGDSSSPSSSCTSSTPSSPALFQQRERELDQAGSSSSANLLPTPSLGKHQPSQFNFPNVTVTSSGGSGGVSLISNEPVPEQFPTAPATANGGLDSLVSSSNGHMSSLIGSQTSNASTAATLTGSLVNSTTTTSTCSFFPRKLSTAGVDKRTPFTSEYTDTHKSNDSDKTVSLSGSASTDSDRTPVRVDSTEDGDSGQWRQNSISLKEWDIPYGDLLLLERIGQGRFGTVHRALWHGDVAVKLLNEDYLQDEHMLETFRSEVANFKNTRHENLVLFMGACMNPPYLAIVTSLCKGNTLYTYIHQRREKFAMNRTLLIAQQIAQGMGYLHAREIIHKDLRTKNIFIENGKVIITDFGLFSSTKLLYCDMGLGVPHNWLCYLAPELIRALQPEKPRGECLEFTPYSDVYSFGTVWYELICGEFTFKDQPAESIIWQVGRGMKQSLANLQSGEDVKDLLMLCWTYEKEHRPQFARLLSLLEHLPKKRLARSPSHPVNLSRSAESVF

Molecule: m6; m8 MEK:E323R; CNK:R46F
- ratio to parent ([1]; anti-Myc (MEK) blot): 0.2
- ratio to parent ([1]; anti-V5 (KSR) blot): 0.23

Molecule: V5-KSR (from UniProt Q24171) W896R
- ratio to parent [2]: 0.29

Molecule: m6; m8 MEK:E323R; CNK:N96E
- ratio to parent ([3]; anti-Myc (MEK) blot): 0.22
- ratio to parent ([3]; anti-V5 (KSR) blot): 0.27

Molecule: V5-KSR (from UniProt Q24171) M902D
- ratio to parent [2]: 0.13

Molecule: m6; m8 MEK:E323R; CNK:Y76R
- ratio to parent ([4]; anti-Myc (MEK) blot): 0.06
- ratio to parent ([4]; anti-V5 (KSR) blot): 0.09

Molecule: m5; m8 KSR:R913E; CNK:Q84E
- ratio to parent ([5]; anti-Myc (MEK) blot): 0.1
- ratio to parent ([5]; anti-V5 (KSR) blot): 0.13

B1: m6; m5 MEK:E323R; KSR:R913E (protein)
chain: MSKNKLNLVLPPVNTEATVAAATVAPTPPFKTPSGTDTHSLLGKPKTSIDALTETLEGLDMGDTERKRIKMFLSQKEKIGELSDEDLEKLGELGSGNGGVVMKVRHTHTHLIMARKLIHLEVKPAIKKQILRELKVLHECNFPHIVGFYGAFYSDGEISICMEYMDGGSLDLILKRAGRIPESILGRITLAVLKGLSYLRDNHAIIHRDVKPSNILVNSSGEIKICDFGVSGQLIDSMANSFVGTRSYMSPERLQGTHYSVQSDIWSLGLSLVEMAIGMYPIPPPNTATLESIFADNAEESGQPTDEPRAMAIFELLDYIVNRPPPKLEHKIFSTEFKDFVDICLKKQPDERADLKTLLSHPWIRKAELEEVDISGWVCKTMDLPPSTPKRNTSPN
- ratio to parent [7]: 1.01

Continued, values first:

- ratio to parent [2]: 0.26
Molecule: V5-KSR (from UniProt Q24171) K903D

- ratio to parent ([5]; anti-Myc (MEK) blot): 0.02
- ratio to parent ([5]; anti-V5 (KSR) blot): 0.05
Molecule: m6; m8 MEK:E323R; CNK:Q84E

- ratio to parent [2]: 1.12
Molecule: V5-KSR (from UniProt Q24171) E926R

- ratio to parent ([6]; anti-Myc (MEK) blot): 0.41
- ratio to parent ([6]; anti-V5 (KSR) blot): 0.41
Molecule: m5; m6 KSR:R913E; MEK:E323R

- ratio to parent [2]: 0.25
Molecule: V5-KSR (from UniProt Q24171) Y925D
